{
  "source": "patent US20040191303A1",
  "about": "“Use of selectin-binding pregnancy proteins, liposomes, native mucin fragments and mimetic compounds for the treatment and prophylaxis inflammatory diseases, for preventing metastatic spread and for the prophylaxis of tumour diseases” (priority 2000, published 2004)",
  "data": [
    {"test_system": "activated HUVEC", "test": "Adhesion inhibition test: HepG2 hepatoma cells to IL-1β activated HUVEC", "assay_type": "cell-based, human", "conditions": "HepG2 cell adhesion", "units": {"IC50": "µM"}, "procedure": "The adhesion test described below is used in vitro to test the active substances.\nHUVECs are isolated from veins of fresh human umbilical cords, used up to the 3rd passage, and cultured to confluence in 96-well titer plates for testing. Expression on HUVEC is induced by adding 0.2 ng of IL-1β per well, reaching its maximum after 4 hours. At this point, an adhesion test/adhesion inhibition test analogous to the one for immobilized E-selectin is performed.\nThe IC50 values (concentration of inhibiting agent for 50% inhibition of adhesion) are indicated.", "values": [
      {"molecule": "sialyl-Lewis x [sLe^x]", "IC50": 2300}
    ]},
    {"test_system": "cell adhesion", "test": "Testing of gestation proteins from various sources as adhesion blocker", "assay_type": "cell-based", "conditions": "not given", "from_the_text": "Testing of Gestation Proteins from Various Sources as Adhesion Blocker\nThe trophoblast culture line has been purchased and not subjected to genetic engineering.", "values": [
      {"molecule": "Amniotic transferrin: transferrin recovered from the amniotic fluid", "Adhesion blocking": "Yes"},
      {"molecule": "Serum Transferrin: transferrin from serum", "Adhesion blocking": "No"},
      {"molecule": "Amniotic ✓-fetoprotein: α-fetoprotein from the amniotic fluid (protein, UniProt P02771 19-609, looked up) Alpha-fetoprotein: RTLHRNEYGIASILDSYQCTAEISLADLATIFFAQFVQEATYKEVSKMVKDALTAIEKPTGDEQSSGCLENQLPAFLEELCHEKEILEKYGHSDCCSQSEEGRHNCFLAHKKPTPASIPLFQVPEPVTSCEAYEEDRETFMNKFIYEIARRHPFLYAPTILLWAARYDKIIPSCCKAENAVECFQTKAATVTKELRESSLLNQHACAVMKNFGTRTFQAITVTKLSQKFTKVNFTEIQKLVLDVAHVHEHCCRGDVLDCLQDGEKIMSYICSQQDTLSNKITECCKLTTLERGQCIIHAENDEKPEGLSPNLNRFLGDRDFNQFSSGEKNIFLASFVHEYSRRHPQLAVSVILRVAKGYQELLEKCFQTENPLECQDKGEEELQKYIQESQALAKRSCGLFQKLGEYYLQNAFLVAYTKKAPQLTSSELMAITRKMAATAATCCQLSEDKLLACGEGAADIIIGHLCIRHEMTPVNPGVGQCCTSSYANRRPCFSSLVVDETYVPPAFSDDKFIFHKDLCQAQGVALQTMKQEFLINLVKQKPQITEEQLEAVIADFSGLLEKCCQGQEQEVCFAEEGQKLISKTRAALGV", "Adhesion blocking": "Yes"},
      {"molecule": "Serum ✓-fetoprotein: α-fetoprotein from the serum of pregnant women (protein, UniProt P02771 19-609, looked up) Alpha-fetoprotein: RTLHRNEYGIASILDSYQCTAEISLADLATIFFAQFVQEATYKEVSKMVKDALTAIEKPTGDEQSSGCLENQLPAFLEELCHEKEILEKYGHSDCCSQSEEGRHNCFLAHKKPTPASIPLFQVPEPVTSCEAYEEDRETFMNKFIYEIARRHPFLYAPTILLWAARYDKIIPSCCKAENAVECFQTKAATVTKELRESSLLNQHACAVMKNFGTRTFQAITVTKLSQKFTKVNFTEIQKLVLDVAHVHEHCCRGDVLDCLQDGEKIMSYICSQQDTLSNKITECCKLTTLERGQCIIHAENDEKPEGLSPNLNRFLGDRDFNQFSSGEKNIFLASFVHEYSRRHPQLAVSVILRVAKGYQELLEKCFQTENPLECQDKGEEELQKYIQESQALAKRSCGLFQKLGEYYLQNAFLVAYTKKAPQLTSSELMAITRKMAATAATCCQLSEDKLLACGEGAADIIIGHLCIRHEMTPVNPGVGQCCTSSYANRRPCFSSLVVDETYVPPAFSDDKFIFHKDLCQAQGVALQTMKQEFLINLVKQKPQITEEQLEAVIADFSGLLEKCCQGQEQEVCFAEEGQKLISKTRAALGV", "Adhesion blocking": "Yes"},
      {"molecule": "Urinary ✓-fetoprotein: α-fetoprotein from urine (protein, UniProt P02771 19-609, looked up) Alpha-fetoprotein: RTLHRNEYGIASILDSYQCTAEISLADLATIFFAQFVQEATYKEVSKMVKDALTAIEKPTGDEQSSGCLENQLPAFLEELCHEKEILEKYGHSDCCSQSEEGRHNCFLAHKKPTPASIPLFQVPEPVTSCEAYEEDRETFMNKFIYEIARRHPFLYAPTILLWAARYDKIIPSCCKAENAVECFQTKAATVTKELRESSLLNQHACAVMKNFGTRTFQAITVTKLSQKFTKVNFTEIQKLVLDVAHVHEHCCRGDVLDCLQDGEKIMSYICSQQDTLSNKITECCKLTTLERGQCIIHAENDEKPEGLSPNLNRFLGDRDFNQFSSGEKNIFLASFVHEYSRRHPQLAVSVILRVAKGYQELLEKCFQTENPLECQDKGEEELQKYIQESQALAKRSCGLFQKLGEYYLQNAFLVAYTKKAPQLTSSELMAITRKMAATAATCCQLSEDKLLACGEGAADIIIGHLCIRHEMTPVNPGVGQCCTSSYANRRPCFSSLVVDETYVPPAFSDDKFIFHKDLCQAQGVALQTMKQEFLINLVKQKPQITEEQLEAVIADFSGLLEKCCQGQEQEVCFAEEGQKLISKTRAALGV", "Adhesion blocking": "No"},
      {"molecule": "Serum PP14: gestation protein pp14 from serum of pregnant women (protein, UniProt P09466 19-180, looked up) Glycodelin: MDIPQTKQDLELPKLAGTWHSMAMATNNISLMATLKAPLRVHITSLLPTPEDNLEIVLHRWENNSCVEKKVLGEKTENPKKFKINYTVANEATLLDTDYDNFLFLCLQDTTTPIQSMMCQYLARVLVEDDEIMQGFIRAFRPLPRHLWYLLDLKQMEEPCRF", "Adhesion blocking": "Yes"},
      {"molecule": "Urinary PP14: gestation protein pp14 from urine of pregnant women (protein, UniProt P09466 19-180, looked up) Glycodelin: MDIPQTKQDLELPKLAGTWHSMAMATNNISLMATLKAPLRVHITSLLPTPEDNLEIVLHRWENNSCVEKKVLGEKTENPKKFKINYTVANEATLLDTDYDNFLFLCLQDTTTPIQSMMCQYLARVLVEDDEIMQGFIRAFRPLPRHLWYLLDLKQMEEPCRF", "Adhesion blocking": "Yes"}
    ]}
  ]
}
